Reference: paper PMC314469, “Protein Interaction Networks by Proteome Peptide Scanning” (PLoS Biology, 2004)

T1: Rvs167 SH3 (RV167_YEAST), P39743
T1 chain: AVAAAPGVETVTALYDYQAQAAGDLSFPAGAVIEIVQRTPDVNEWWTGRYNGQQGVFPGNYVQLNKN

T2: Boi2 SH3 (BOI2_YEAST), P39969
T2 chain: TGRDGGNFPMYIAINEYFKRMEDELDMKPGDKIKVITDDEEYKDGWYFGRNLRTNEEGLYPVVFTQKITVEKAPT

T3: Yhr016c SH3 (YSC84_YEAST), P32793
T3 chain: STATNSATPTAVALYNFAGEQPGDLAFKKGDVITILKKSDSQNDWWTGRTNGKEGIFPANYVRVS

T4: Yfr024 SH3 (LSB3_YEAST), P43603
T4 chain: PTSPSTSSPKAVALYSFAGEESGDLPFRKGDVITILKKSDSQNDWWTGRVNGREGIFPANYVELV

T5: Myo5 SH3 (MYO5_YEAST), Q04439
T5 chain: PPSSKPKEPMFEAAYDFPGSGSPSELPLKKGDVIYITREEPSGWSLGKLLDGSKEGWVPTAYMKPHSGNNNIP

T6: Boi1 SH3 (BOI1_YEAST), P38041
T6 chain: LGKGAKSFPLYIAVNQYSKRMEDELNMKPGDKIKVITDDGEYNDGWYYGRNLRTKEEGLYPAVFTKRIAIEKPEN


What was measured:
Experiment in all cases: SPOT array
[1] = target: T1, Rvs167 SH3 (RV167_YEAST), P39743
[2] = target: T2, Boi2 SH3 (BOI2_YEAST), P39969
[3] = target: T3, Yhr016c SH3 (YSC84_YEAST), P32793
[4] = target: T4, Yfr024 SH3 (LSB3_YEAST), P43603
[5] = target: T5, Myo5 SH3 (MYO5_YEAST), Q04439
[6] = target: Sho1 SH3 (SHO1_YEAST), P40073
Chain of Sho1 SH3 (SHO1_YEAST), P40073 (P40073 295-366): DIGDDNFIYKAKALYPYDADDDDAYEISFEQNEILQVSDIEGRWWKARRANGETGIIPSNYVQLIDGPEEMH

[7] = target: T6, Boi1 SH3 (BOI1_YEAST), P38041

| Binder | normalised SPOT signal, Boehringer light units (BLU); mean over the file's lines of this peptide [1] | normalised SPOT signal, Boehringer light units (BLU); mean over the file's lines of this peptide [2] | normalised SPOT signal, Boehringer light units (BLU); mean over the file's lines of this peptide [3] | normalised SPOT signal, Boehringer light units (BLU); mean over the file's lines of this peptide [4] | normalised SPOT signal, Boehringer light units (BLU); mean over the file's lines of this peptide [5] | normalised SPOT signal, Boehringer light units (BLU); mean over the file's lines of this peptide [6] | normalised SPOT signal, Boehringer light units (BLU); mean over the file's lines of this peptide [7] |
| --- | --- | --- | --- | --- | --- | --- | --- |
| EFDLKNIPMMPAGE [YDL229W 462-475] | 74.1 | 9.1 | 32.3 | 112 | 106 | 37.1 | 18.6 |
| EFIVKTIPVPPRDF [YER025W 296-309] | 30.4 | 13.8 | 44.4 | 202 | 115 | 57.2 | 15 |
| EFLIKEDPDLPPQG [YCL024W 744-757] | 134 | 69.1 | 51.8 | 8.1 | 175 | 65.4 | 78 |
| EELARVTPLTPKEY [YDL195W 1179-1192] | 75.6 | 41.9 | 11.8 | 25.2 | 182 | 54.5 | 65.7 |
| DTYARNNPDFPPQN [YDR164C 226-239] | 46.3 | 31.6 | 39.1 | 17.2 | 138 | 4.9 | 118 |
| DYRPKSIPSPPNGI [YML034W 511-524] | 19.7 | 6 | 36.2 | 38.5 | 154 | 23.7 | 75.6 |
| EEQVKSNPNRPIYW [YGR234W 292-305] | 13.3 | 23.1 | 30.2 | 140 | 110 | 24.8 | 149 |
| EDLVKKPPFIPSPT [YDR219C 208-221] | 13.6 | 17.3 | 2.1 | 0 | 756 | 17.6 | 40.9 |
| EEQVKEKPNEPEGK [YLL021W 188-201] | 22.8 | 28.7 | 23.2 | 0 | 134 | 30.7 | 25.7 |

More lines, now with the values ahead:

| normalised SPOT signal, Boehringer light units (BLU); mean over the file's lines of this peptide [1] | normalised SPOT signal, Boehringer light units (BLU); mean over the file's lines of this peptide [2] | normalised SPOT signal, Boehringer light units (BLU); mean over the file's lines of this peptide [3] | normalised SPOT signal, Boehringer light units (BLU); mean over the file's lines of this peptide [4] | normalised SPOT signal, Boehringer light units (BLU); mean over the file's lines of this peptide [5] | normalised SPOT signal, Boehringer light units (BLU); mean over the file's lines of this peptide [6] | normalised SPOT signal, Boehringer light units (BLU); mean over the file's lines of this peptide [7] | Binder |
| --- | --- | --- | --- | --- | --- | --- | --- |
| 52.3 | 34 | 15.7 | 21.3 | 176 | 39.1 | 57.4 | DVNHRYPPMAPTTV [YPR008W 508-521] |
| 126 | 37.3 | 13.2 | 227 | 413 | 91 | 620 | EFLRKHSPKAPATG [YMR021C 127-140] |
| 42.8 | 4.5 | 56.7 | 0 | 29.4 | 10.6 | 114 | EEEAKSVPPIPADQ [YOL027C 550-563] |
| 354 | 37.1 | 177 | 2260 | 261 | 52.1 | 13600 | DSYSRSRPTRPLGY [YNL165W 293-306] |
| 125 | 17.7 | 45.9 | 99 | 587 | 48.2 | 108 | EEKVKRTPPLPPVP [YOL093W 10-23] |
| 32.7 | 2 | 16.2 | 72.6 | 87.3 | 38.9 | 40.4 | EFDEKLPPKKPAGP [YMR072W 109-122] |
| 3000 | 42.9 | 7160 | 8340 | 368 | 71.6 | 1090 | EFPGKKSPRLPHRN [YPR097W 343-356] |
